The test system of assay [1] is virus expressing a group 1 neuraminidase (N4). More on the design: species or system mice. The note with it: mouse, in vivo.
Assay [2] deals with recombinant NA, group 1 NAs (N1, N4, N5 and N8) and group 2 NAs (N2, N3, N6, N7 and N9). Format: binding, influenza A virus.
Assay [3] relates to challenge viruses expressing N1, N2, N3, N5, N6, N7, N8, N9 NAs and influenza B virus NA. More on the design: species or system mice. As to conditions: mouse, in vivo.
The next assay has as its system recombinant N2 NA. Format: binding, influenza A virus.
For assay [4], the system named is influenza A group 1 and group 2 NAs. In words: Enzyme-linked lectin assay (ELLA) neuraminidase inhibition, influenza A NAs. The class given is biochemical, influenza A virus. The note with it: for neuraminidase inhibition (NI) in ELLA: fetuin substrate, subtypes inhibited are named in the value. As to the method: Ninety six-well microtiter plates (Thermo Fisher) were coated with 100 μL/well fetuin (Sigma) at a concentration of 25 μg/mL in 1× coating buffer (KPL coating solution; SeraCare) at 4° C. overnight. The next day, the plates were washed three times with T-PBS and blocked in 200 μL blocking buffer (5% bovine serum albumin (BSA, Biomedicals) in PBS) at room temperature. On a separate 96-well plate virus was serially diluted 1:2 in PBS. Seventy-five μL of PBS was added to all wells and the plates incubated for 1.5 h on a shaker at room temperature. After blocking, the plates were washed three times with T-PBS, 100 μL of serially diluted virus was transferred well by well to the fetuin coated plates and the plates were incubated for 2 hours at 33° C. or 37° C. depending on the virus type. The plates were washed four times and 100 μL peanut agglutinin (PNA) conjugated to HRP at a concentration of 5 μg/mL was added to all wells. The plates were incubated in the dark for two hours, the plates washed four times and developed with 100 μL SigmaFast OPD. The reaction was stopped after 5 min with 50 μL 3M hydrochloric acid (Thermo Fisher) and the plates were read at a wavelength of 490 nm with a microtiter plate reader (Bio-Tek). The data were analyzed in Microsoft Excel and GraphPad Prism 7, and the 50% effective concentration (EC50) was calculated for each virus.
To perform neuraminidase inhibition assays, the microtiter plates were coated and blocked as described above. During the blocking of the fetuin coated plates the mAbs were diluted to a starting concentration of 30 μg/mL and serially diluted 1:2 in PBS in a separate 96-well plate. Seventy-five μL of virus diluted to 2× effective concentration 50 (EC50) was added to wells of the serially diluted mAbs and incubated for 1.5 h on a shaker. The fetuin coated plates were washed three times with T-PBS and the virus/mAb mixture was added to the plates and incubated for 2 hours at 33° C. or 37° C. The remainder of the assay was performed as described above. The data were analyzed in Microsoft Excel and GraphPad Prism 7, and the inhibitory concentration 50 (IC50) was calculated.

These results are taken from patent US12509503B2, “Pan-neuraminidase inhibiting antibodies” (Washington University, priority 2019, dated 2025).

B1: 1G01: human anti-NA monoclonal antibody expressed as IgG1; heavy chain variable region SEQ ID NO: 44, light chain variable region SEQ ID NO: 45 (antibody, listed as Homo sapiens, V domains shown)
VH: EVQLVESGGRALRPGGSLRLSCAASGFKFDDYAMSWVRQVPGKGLEFVSGLNWNGDITAYTDSVKGRFTVSRDNAKNSLYLHINSPKPEDTALYYCARTSSWGDYTRGPEPKITWYFDLWGRGTLVTVSS
VL: DIQLTQSPSFLSASVGDRITITCRASQGIDGYLAWYQQRPGKAPNLLIYAASLLQSGVPSRFSGSGYGTEFTLTISSLQPEDFATYYCQHLDSYPLFTFGPGTKVDIK
modifications: IgG1 constant regions
For the molecule B1, the weight loss entry in assay [1] was “some transient weight loss”. The “binding / cross-reactivity to recombinant influenza A NA subtypes in ELISA” value (shortened to “binding / cross-reactivity”) in assay [2] was “broadest binding activity that covered all group 1 NAs (N1, N4, N5 and N8) and group 2 NAs (N2, N3, N6, N7 and N9)”. For the same molecule, in assay [3], the “protection against weight loss” value is on record as “solid protection against weight loss” and the protection from lethality result is “full protection from lethality”. In addition, in the assay with recombinant N2 NA, the “binding to N2 NA” value was “bound”. Moreover, the “neuraminidase inhibition (NI) in ELLA” value in assay [4] was “inhibited the activity of all A/group 2 and group 1 NAs”.

B2: 1G01 Fab: antigen-binding fragment (Fab) of 1G01 used instead of the full antibody (antibody)
heavy: EVQLVESGGRALRPGGSLRLSCAASGFKFDDYAMSWVRQVPGKGLEFVSGLNWNGDITAYTDSVKGRFTVSRDNAKNSLYLHINSPKPEDTALYYCARTSSWGDYTRGPEPKITWYFDLWGRGTLVTVSS
light: DIQLTQSPSFLSASVGDRITITCRASQGIDGYLAWYQQRPGKAPNLLIYAASLLQSGVPSRFSGSGYGTEFTLTISSLQPEDFATYYCQHLDSYPLFTFGPGTKVDIK
modifications: left off: a dimerising Fc or GST
Take B2: the “NA inhibition in ELLA” value in assay [4] (H3N2 strain A/Hong Kong/4801/2014) is on record as “potent inhibition”.

B3: 1G04: human anti-NA monoclonal antibody expressed as IgG1; heavy chain variable region SEQ ID NO: 40, light chain variable region SEQ ID NO: 41 (antibody, listed as Homo sapiens, V domains shown)
VH: EVQLVESGGRVVRPGGSLRLSCAASGFTFDDYGMSWVRQAPGKGLEFVSGLNWNGDITAFTDSVKGRFTISRDNAKSSLYLQMNSLRADDTAFYYCARVRTWGEYTTREEPIHSWYFDLWGRGTLVTVSS
VL: DIQLTQSPSFLSASVGDRVTITCRASQDISSFLAWYQQKPGNAPKVLIYAASLLQSGVPSRFSGSGSGTDFTLTISSLQPEDFATYYCQQLNSYPLFTFGPGTKVDIK
modifications: IgG1 constant regions
For B3, the “binding / cross-reactivity” value in assay [2] was “some cross-reactivity to N3 and N6 (group 2), and N1, N5 and N8 (group 1)”. Also, in the assay with recombinant N2 NA, the “binding to N2 NA” value is “bound”. Further, the “neuraminidase inhibition (NI) in ELLA” value in assay [4] was “inhibited N2, N3 and certain N1 NAs”.

B4: 1E01: human anti-NA monoclonal antibody expressed as IgG1; heavy chain variable region SEQ ID NO: 42, light chain variable region SEQ ID NO: 43 (antibody, listed as Homo sapiens, V domains shown)
VH: EVQLVESGGRVVRPGGSLRLSCAASGFTFDDYGMSWVRQPPGKGLEFVSGLNWNGDITAFTDSVKGRFTISRDNVKSSLYLQMNSLRADDTAFYYCARVRTWGDYTTGEEIINSWYFDLWGRGTLVTVSS
VL: DIQLTQSPSFLSASVGDRVTITCRASQDISSYLAWYQQKPGNAPKLLIYAASLLQSGVPSRFSAFGSGTEFTLTISSLQPEDFATYYCQHLKSYPLFTFGPGTKVDIK
modifications: IgG1 constant regions
For the molecule B4, in assay [2], the “binding / cross-reactivity” value is “even broader binding pattern that included group 2 NAs N3, N6, N7 and N9, group 1 NAs N1, N5 and N8”. In addition, the “binding to N2 NA” value in the assay on recombinant N2 NA is “bound”. In addition, in assay [4], the “neuraminidase inhibition (NI) in ELLA” value was “inhibited group 2 NAs, N1”.
